Data as given in PMC2770954.
pKd: −log10 of the molar value. Where “and” joins values, the source holds several entries; their conditions need not be identical. Identical values can stand only once.

Key:
[1] = molecular target: HIV-1 reverse transcriptase p66 subunit (wild type) (HIV-1) (UniProt P03366); experiment: pre-steady-state activity assay
[2] = molecular target: HIV-1 reverse transcriptase p66 subunit (wild type) (HIV-1) (UniProt P03366); experiment: intrinsic tryptophan fluorescence kinetics
[3] = molecular target: HIV-1 reverse transcriptase p66 p66 (Human immunodeficiency virus 1) (UniProt O93215); settings: cited from earlier work
[4] = molecular target: HIV-1 reverse transcriptase p51 p51 (Human immunodeficiency virus 1) (UniProt O93215); settings: cited from earlier work
[5] = molecular target: p66^S3C/C38V/C280S labeled with QSY9 (HIV-1); experiment: FRET or BRET
[6] = molecular target: p66^S3C/C38V/C280S labeled with A488 (HIV-1); experiment: FRET or BRET

“HIV-1 reverse transcriptase p51 subunit (wild type) (from UniProt P03366 600-1039) (natural protein)” showed a kobs (0.5 µM p66, 0.5 µM p51) [1] of 5.8e-06 s⁻¹, a kobs (0.5 µM p66, 2.5 µM p51) [1] of 7.8e-06 s⁻¹ and a kdiss(1), slower major component of the two-exponential fit [2] of 3.6e-06 s⁻¹. For the same substance, the kdiss(2), faster minor component of the two-exponential fit [2] was 7.6e-05 s⁻¹ and the kobs (0.5 µM p66, 0.5 µM p51) [2] was 5.4e-06 s⁻¹.
In the case of “HIV-1 reverse transcriptase p66 p66 (from UniProt O93215)”, the pKd [3] is listed as 5.38 and the pKd [4] is listed as 6.51.
“p51^S3C/C38V/C280S labeled with A488 (natural protein)” showed a kobs (0.5 µM p66-QSY9, 0.5 µM p51-A488) [5] of 3.4e-06 s⁻¹ and a koff [5] of 1.9e-06 s⁻¹.
For “p51^S3C/C38V/C280S labeled with QSY9 (natural protein)”, the kobs (0.5 µM p66-A488, 0.5 µM p51-QSY9) [6] was 4.1e-06 s⁻¹, the kobs (0.5 µM p66-A488, 1.5 µM p51-QSY9) [6] was 4.8e-06 s⁻¹ and the kobs (0.5 µM p66-A488, 2.0 µM p51-QSY9) [6] was 5.7e-06 s⁻¹. For the same substance, the kobs (0.5 µM p66-A488, 2.5 µM p51-QSY9) [6] was 7.1e-06 s⁻¹, the koff [6] was 2.5e-06 s⁻¹ and the kon [6] was 1.6 M⁻¹ s⁻¹ and 1.8 M⁻¹ s⁻¹.
